# Reference: US20220177587A1, “METHODS AND USES OF VARIANT CD80 FUSION PROTEINS AND RELATED CONSTRUCTS” (Alpine Immune Sciences, Inc., priority 2018, published 2022)
# Positions count from the first letter of the chain named. Names may count otherwise.
# B1: H18L, R29D, Y31L, Q33H, K36G, M38I, T41A, M43R, M47T, E81V, L85R, K89N, A91T, F92P, K93V, R94L, L97R, T130A, N149S (protein, UniProt P33681 35-288, looked up, variant H18L R29D Y31L Q33H K36G M38I T41A M43R M47T E81V L85R K89N A91T F92P K93V R94L L97R T130A N149S)
# T-lymphocyte activation …: VIHVTKEVKEVATLSCGLNVSVEELAQTDILWHKEGKIVLAMRSGDTNIWPEYKNRTIFDITNNLSIVILALRPSDEGTYVCVVRKYENDTPVLEHRAEVTLSVKADFPTPSISDFEIPTSNIRRIICSASGGFPEPHLSWLENGEELSAINTTVSQDPETELYAVSSKLDFNMTTNHSFMCLIKYGHLRVNQTFNWNTTKQEHFPDNLLPSWAITLISVNGIFVICCLTYCFAPRCRERRRNERLRRESVRPV
# B2: A91G, S129P (protein)
# chain: VIHVTKEVKEVATLSCGHNVSVEELAQTRIYWQKEKKMVLTMMSGDMNIWPEYKNRTIFDITNNLSIVILALRPSDEGTYECVVLKYEKDGFKREHLAEVTLSVKADFPTPSISDFEIPTSNIRRIICPTSGGFPEPHLSWLENGEELNAINTTVSQDPETELYAVSSKLDFNMTTNHSFMCLIKYGHLRVNQTFNWNTTKQEHFPDN
# B3: Q27R, R29C, M42T, S129P, E160G (protein)
# chain: B2 chain with Q27R, R29C, M42T, G91A, E160G
# modifications: CD80 v119 ECD
# B4: I69T, L70Q, A91G, T120S (protein)
# chain: B2 chain with I69T, L70Q, T120S, P129S
# modifications: CD80 v105 ECD
# B5: Y31H, S129P (protein)
# chain: B2 chain with Y31H, G91A
# modifications: CD80 v106 ECD
# B6: S129P, T154A (protein)
# chain: B2 chain with G91A, T154A
# B7: I118T, C128R (protein)
# chain: B2 chain with G91A, I118T, C128R, P129S
# modifications: CD80 v118 ECD
# B8: R29D, Y31L, Q33H, K36G, M38I, T41A, M43R, M47T, E81V, L85R, K89N, A91T, F92P, K93V, R94L, H18L, V68M, T130A (protein)
# chain: VIHVTKEVKEVATLSCGLNVSVEELAQTDILWHKEGKIVLAMRSGDTNIWPEYKNRTIFDITNNLSIMILALRPSDEGTYVCVVRKYENDTPVLEHLAEVTLSVKADFPTPSISDFEIPTSNIRRIICSASGGFPEPHLSWLENGEELNAINTTVSQDPETELYAVSSKLDFNMTTNHSFMCLIKYGHLRVNQTFNWNTTKQEHFPDN
# B9: R29D, Y31L, Q33H, K36G, M38I, T41A, M43R, M47T, E81V, L85R, K89N, A91T, F92P, K93V, R94L, V22A, I118T, T130A, N149S (protein)
# chain: B8 chain with L18H, V22A, M68V, I118T, N149S
# B10: R29D, Y31L, Q33H, K36G, M38I, T41A, M43R, M47T, E81V, L85R, K89N, A91T, F92P, K93V, R94L, H18L, P74L, Y80N, T130A, R190S (protein)
# chain: B8 chain with M68V, P74L, Y80N, R190S
# B11: R29D, Y31L, Q33H, K36G, M38I, T41A, M43R, M47T, E81V, L85R, K89N, A91T, F92P, K93V, R94L, H18L, V68A, T130A, N149S, T154I (protein)
# chain: B8 chain with M68A, N149S, T154I
# B12: R29D, Y31L, Q33H, K36G, M38I, T41A, M43R, M47T, N48D, F59L, E81V, L85R, K89N, A91T, F92P, K93V, R94L, I118V, T120S, I127T, T130A, H188D (protein)
# chain: B8 chain with L18H, N48D, F59L, M68V, I118V, T120S, I127T, H188D
# B13: V22A, R29D, Y31L, Q33H, K36G, M38I, T41A, M43R, M47T, E81V, L85R, K89N, A91T, F92P, K93V, R94L, V68M, T130A (protein)
# chain: B8 chain with L18H, V22A
# B14: R29D, Y31L, Q33H, K36G, M38I, T41A, M43R, M47T, E81V, L85R, K89N, A91T, F92P, K93V, R94L, I118T, T130A, N149S (protein)
# chain: B8 chain with L18H, M68V, I118T, N149S
# B15: R29D, Y31L, Q33H, K36G, M38I, T41A, M43R, M47T, L70Q, E81V, L85R, K89N, A91T, F92P, K93V, R94L, I118V, T120S, I127T, T130A, E143G, K169E, M174V, H188D (protein)
# chain: B8 chain with L18H, M68V, L70Q, I118V, T120S, I127T, E143G, K169E, M174V, H188D
# B16: H18L, R29D, Y31L, Q33H, K36G, M38I, T41A, M43R, M47T, E81V, L85R, K89N, A91T, F92P, K93V, R94L, L97R, N149S, H188Q (protein)
# chain: B8 chain with M68V, L97R, A130T, N149S, H188Q
# B17: R29D, Y31L, Q33H, K36G, M38I, T41A, M43R, M47T, E81V, L85R, K89N, A91T, F92P, K93V, R94F, T130A, N149S, K169I (protein)
# chain: B8 chain with L18H, M68V, L94F, N149S, K169I
# B18: R29D, Y31L, Q33H, K36G, M38I, T41A, M43R, M47T, E81V, L85R, K89N, A91T, F92P, K93V, R94F, N64S, I118T, T130A, N149S, K169I (protein)
# chain: B8 chain with L18H, N64S, M68V, L94F, I118T, N149S, K169I
# B19: R29D, Y31L, Q33H, K36G, M38I, T41A, M43R, M47T, E81V, L85R, K89N, A91T, F92P, K93V, R94L, I118V, T120S, T130A, K169E, M174T (protein)
# chain: B8 chain with L18H, M68V, I118V, T120S, K169E, M174T
# B20: R29D, Y31L, Q33H, K36G, M38I, T41A, M43R, M47T, E81V, L85R, K89N, A91T, F92P, K93V, R94L, I118T, T130A, N149S, K169I, Q193L (protein)
# chain: B8 chain with L18H, M68V, I118T, N149S, K169I, Q193L
# B21: H18R, R29D, Y31L, Q33H, K36G, K37E, M38I, T41A, M43R, M47T, L70Q, E81V, L85R, K89N, A91T, F92P, K93V, R94L, I118V, T120S, T130A, K169E, H188D (protein)
# chain: B8 chain with L18R, K37E, M68V, L70Q, I118V, T120S, K169E, H188D
# B22: R29D, Y31L, Q33H, K36G, M38I, T41A, M43R, M47T, E81V, L85R, K89N, A91T, F92P, K93V, R94L, I118T, T130A, N149S, K169I (protein)
# chain: B8 chain with L18H, M68V, I118T, N149S, K169I
# B23: T28A, R29D, Y31L, Q33H, K36G, M38I, T41A, M43R, M47T, E81V, L85R, K89N, A91T, F92P, K93V, R94L, V104L, T130A, N149S (protein)
# chain: B8 chain with L18H, T28A, M68V, V104L, N149S
# Tested on: human pan T cells
# Test: Anti-CD3 coimmobilization assay, IFN-gamma
# Type: cell-based
# Conditions: Table E34; culture supernatant, 3 days
# Experimental: Costimulatory bioactivity of CD80 fusion variants was determined in anti-CD3 coimmobilization assays. 1 nM or 4 nM mouse anti-human CD3 (OKT3, Biolegends, USA) was diluted in PBS with 1 nM to 80 nM rCD80.Fc variant proteins. This mixture was added to tissue culture treated flat bottom 96-well plates (Corning, USA) overnight to facilitate adherence of the stimulatory proteins to the wells of the plate. The next day, unbound protein was washed off the plates and 100,000 purified human pan T cells (BenTech Bio, US) or human T cell clone BC3 (Astarte Biologics, USA) were added to each well in a final volume of 200 μl of Ex-Vivo 15 media (Lonza, Switzerland). Cells were cultured 3 days before harvesting culture supernatants and measuring human IFN-gamma levels with Duoset ELISA kit (R&D Systems, USA) as described above.
row,Molecule,Anti-CD3 IFN-gamma Coimmobilization Assay
1,B1,96 pg/mL
2,B2,0 pg/mL
3,B3,139 pg/mL
4,B4,509 pg/mL
5,B5,76 pg/mL
6,B6,156 pg/mL
7,B7,122 pg/mL
8,B8,51 pg/mL
9,B9,124 pg/mL
10,B10,8 pg/mL
11,B11,132 pg/mL
12,B12,230 pg/mL
13,B13,96 pg/mL
14,B14,89 pg/mL
15,B15,291 pg/mL
16,B16,125 pg/mL
17,B17,114 pg/mL
18,B18,30 pg/mL
19,B19,141 pg/mL
20,B20,130 pg/mL
21,B21,305 pg/mL
22,B22,101 pg/mL
23,B23,116 pg/mL
